We go through two sequences from patent US20100261245.

This data set has as its system T1, VEGF, P15692-4.
T1 sequence: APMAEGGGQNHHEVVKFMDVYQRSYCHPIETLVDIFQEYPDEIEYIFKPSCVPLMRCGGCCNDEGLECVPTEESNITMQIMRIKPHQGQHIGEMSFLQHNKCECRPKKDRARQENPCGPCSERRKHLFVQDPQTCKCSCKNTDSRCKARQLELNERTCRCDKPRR
Description: SPR. Particulars: BIAcore 2000, VEGF immobilized, aptamer 30-500 nM. A general note: Surface plasmon resonance follows binding to a sensor surface in real time, without labels.

The Kd is the concentration at which binding is half-saturated. High values mean a looser complex, low ones a tighter complex. Turning to “AUGCAGUUUGAGAAGUCGCGCAU [PEGylated anti-VEGF 2'-OMe-RNA aptamer]”, the Kd (2'-OMe at all positions as printed, 5'-PEG 20 kDa (mPEG-SPA via 5' amine), PBS pH 7.4) amounted to 87 nM.

“AUGCAGUUUGAGAAGUCGCGCAU [anti-VEGF 2'-OMe-RNA aptamer]” showed a Kd (2'-OMe at all positions as printed (Am, Um, Gm, Cm), 5' terminal amine group stated for the PEGylation precursor, PBS pH 7.4 stated for the PEGylated aptamer) of 1.87 nM.
